Biological target: T1, Myo2p globular tail subdomain II (residues 1346–1574), tryptic fragment (S. cerevisiae, UniProt P19524 1346-1574)
T1 sequence (looked up): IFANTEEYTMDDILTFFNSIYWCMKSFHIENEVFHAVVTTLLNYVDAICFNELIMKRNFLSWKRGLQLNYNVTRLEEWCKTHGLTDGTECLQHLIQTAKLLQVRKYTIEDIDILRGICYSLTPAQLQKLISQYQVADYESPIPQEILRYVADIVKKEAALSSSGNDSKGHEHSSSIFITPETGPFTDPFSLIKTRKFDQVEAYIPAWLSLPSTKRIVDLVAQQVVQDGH
Assay: SEC

Kd: ≤ 1 nM
B1: Myo2p globular tail subdomain I (residues 1131–1345), tryptic fragment (domain or fragment, S. cerevisiae, UniProt P19524 1131-1345, looked up)
chain: STPSSGNNHIDSLSVDRENGVNATQINEELYRLLEDTEILNQEITEGLLKGFEVPDAGVAIQLSKRDVVYPARILIIVLSEMWRFGLTKQSESFLAQVLTTIQKVVTQLKGNDLIPSGVFWLANVRELYSFVVFALNSILTEETFKNGMTDEEYKEYVSLVTELKDDFEALSYNIYNIWLKKLQKQLQKKAINAVVISESLPGFSAGETSGFLNK

— PMC2171732 (The Journal of Cell Biology, 2005)
